This data set can be described thus: protein stability index of a GFP-peptide fusion (yeast GPS) (PSI 1-4); higher = more stable; sorted into four equal gates, so the index is relative within each strain. The essentials: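 For each peptide, the protein stability index sums the read frequency in every gate after multiplying it by the gate number. Read frequencies came from plasmids that were PCR-amplified from each gate and Illumina-sequenced, with reads assigned to strains by barcodes. The gates were four equal bins of GFP/Cherry fluorescence ratio applied to mid-log yeast in leucine-free medium carrying a pooled library of tiled 17-residue yeast protein peptides fused downstream of GFP on a Cherry-expressing plasmid.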

Here are results for 36 sequences from the supplement of paper PMC9732359.

± gives the uncertainty stated by the source.

Turning to KETWLHELSSSHTSLVK [SRB8], the protein stability index by setting is: (doa10∆) 1.81 ± 0.05; (pdr5∆) 2.04 ± 0.056; (san1∆) 1.87 ± 0.083; (ubr1∆) 1.8 ± 0.055.
On to FNKEQLNKFKKAIFQFV [ECM29], for which the protein stability index reads like this: (doa10∆) 1.58 ± 0.15; (pdr5∆) 1.27 ± 0.096; (ubr1∆) 1.15 ± 0.069.
Consider NKKSEQALDISKKGKPT [SRP72], for which the protein stability index is, setting by setting: (doa10∆) 3.1 ± 0.1; (pdr5∆) 3.02 ± 0.071; (san1∆) 2.81 ± 0.061; (ubr1∆) 3.04 ± 0.073.
Taken in the same sequence, the figures for HGKASRQQYYSGVQVGG [SNF6] were 2.43 ± 0.061, 2.8 ± 0.063, 2.61 ± 0.052 and 2.21 ± 0.05.
Taken in the same sequence, the figures for QEEFVQFLQLDNDGFSF [ECM29] were 1.9 ± 0.087, 3.13 ± 0.12, 1.93 ± 0.11 and 2.41 ± 0.11.
The matching figures for KKYSSKNKYGEINSEDY [SRP68]: 3.22 ± 0.12, 2.8 ± 0.18, 3.34 ± 0.066 and 3.14 ± 0.053.
Consider PQDILSKLYLLLARVFE [SNF11], for which the protein stability index runs as follows: (doa10∆) 2.14 ± 0.044; (pdr5∆) 2.37 ± 0.052; (san1∆) 2.2 ± 0.069; (ubr1∆) 2.4 ± 0.041.
Taken in the same sequence, the figures for STKELKFSDIIQGISKM [BRN1] were 3.16 ± 0.098, 3.33 ± 0.084, 3.18 ± 0.072 and 3.35 ± 0.085.
Taken in the same sequence, the figures for LLVGLIKTFYWLEQFLS [NUT1] were 2.24 ± 0.12, 1.11 ± 0.076, 1.34 ± 0.14 and 1.24 ± 0.074.
For the sequence VQMDKIRKIVRKDENQF [AAR2], the protein stability index turned out to be 3.25 ± 0.17 (doa10∆) and 2.81 ± 0.18 (pdr5∆).
As for DLKFKRHKNKHIQGFPT [DSN1], the protein stability index runs as follows: (doa10∆) 3.15 ± 0.13; (pdr5∆) 3.38 ± 0.28; (san1∆) 1.75 ± 0.12; (ubr1∆) 2.98 ± 0.12.
The matching figures for ANKEKRAIILERNAAYQ [RPL7A]: 1.2 ± 0.072, 1.38 ± 0.081, 1.14 ± 0.11 and 1.32 ± 0.2.
The matching figures for SRIYKTIKVAGTPLLEV [SNU114]: 2.21 ± 0.052, 2.38 ± 0.055, 2.03 ± 0.071 and 2.23 ± 0.053.
The matching figures for EELKDSEINEILARNDE [SNF2]: 3.2 ± 0.18, 3.55 ± 0.12, 2.66 ± 0.13 and 3.32 ± 0.089.
IYAGYDDRYGYQLYTSN [PRE9]: the protein stability index came out at 2.99 ± 0.16 (doa10∆), 2.14 ± 0.25 (pdr5∆), 1.86 ± 0.17 (san1∆) and 2.34 ± 0.16 (ubr1∆).
For the sequence KQLNSLRRSGQIANDPS [SMD1], the protein stability index reads like this: (doa10∆) 2.56 ± 0.09; (pdr5∆) 3.02 ± 0.14; (ubr1∆) 2.91 ± 0.07.
As to GASGEERLMSRPFGVAL [PUP2], the protein stability index turned out to be 3.36 ± 0.14 (doa10∆), 3.24 ± 0.079 (pdr5∆), 2.93 ± 0.073 (san1∆) and 3.13 ± 0.05 (ubr1∆).
The matching figures for RKVENIRTILVNIHHLL [MED7]: 1.55 ± 0.04, 1.74 ± 0.041, 1.5 ± 0.087 and 1.32 ± 0.033.
The matching figures for SGNSANNMNVNMNLNPQ [GAL11]: 2.85 ± 0.046, 2.87 ± 0.042, 2.73 ± 0.033 and 2.93 ± 0.034.
Taken in the same sequence, the figures for RAKALGIKVTNPKGRLA [RPL32] were 3.62 ± 0.3, 3.33 ± 0.18, 2.87 ± 0.23 and 3.39 ± 0.27.
On to TRKILEILNECHDELKA [MED4], for which the protein stability index worked out at 2.04 ± 0.071 (doa10∆), 2.5 ± 0.13 (pdr5∆), 2.44 ± 0.085 (san1∆) and 2.71 ± 0.097 (ubr1∆).
As for LGVTYSSPTLATGFGAH [PRE4], the protein stability index by setting is: (doa10∆) 2.41 ± 0.078; (pdr5∆) 2.29 ± 0.12; (san1∆) 2.48 ± 0.087; (ubr1∆) 1.62 ± 0.12.
The matching figures for LDKLDEILYYQIKTLPE [AAR2]: 2.89 ± 0.13, 2.97 ± 0.14, 3 ± 0.13 and 3.25 ± 0.15.
Taken in the same sequence, the figures for ARGLTATGKKSRGINKG [RPL15A] were 3.57 ± 0.19, 3.37 ± 0.15, 3.3 ± 0.071 and 3.16 ± 0.068.
Taken in the same sequence, the figures for RWYQLIATGCKDGRIRI [YGL100W/SEH1] were 2.31 ± 0.065, 2.26 ± 0.057, 2.18 ± 0.078 and 2.43 ± 0.044.
Consider MVNSHGIRYIRLKQVFN [NNF1], for which the protein stability index is 1.46 ± 0.048 (doa10∆), 1.67 ± 0.04 (pdr5∆), 1.88 ± 0.19 (san1∆) and 1.81 ± 0.052 (ubr1∆).
Taken in the same sequence, the figures for KIDSHVVLSFSGLNADS [PRE6] were 1.8 ± 0.062, 1.72 ± 0.069, 2.48 ± 0.073 and 2.19 ± 0.054.
Take SSYEEFLERFDFYTRHH [ITC1]: the protein stability index by setting is: (doa10∆) 3.19 ± 0.13; (pdr5∆) 3.1 ± 0.083; (san1∆) 3.03 ± 0.073; (ubr1∆) 3.1 ± 0.081.
Taken in the same sequence, the figures for VTAEDFKQAKERVMKNK [RPT2] were 3.69 ± 0.23, 3.52 ± 0.12, 3.52 ± 0.11 and 3.42 ± 0.11.
For the sequence PPAYALLGSCQTDGMGL [RPC25], the protein stability index reads like this: (doa10∆) 2.15 ± 0.11; (pdr5∆) 2.57 ± 0.15; (san1∆) 2.22 ± 0.19; (ubr1∆) 2.41 ± 0.13.
The matching figures for QAPKQRRRTYRAHGRIN [RPL17A]: 2.06 ± 0.29, 2.64 ± 0.12, 1.9 ± 0.18 and 2.09 ± 0.091.
EKKQKTESQDVETRVQN [DPB4]: the protein stability index stood at 3.52 ± 0.11 (doa10∆), 3.38 ± 0.072 (pdr5∆), 3.35 ± 0.048 (san1∆) and 3.3 ± 0.056 (ubr1∆).
The matching figures for TNAGYTIELAGGGYFSA [FAS1]: 2.39 ± 0.078, 2.28 ± 0.088, 1.72 ± 0.11 and 2.09 ± 0.068.
Consider FEQFEKFYEEKLWFQLS [RPN9], for which the protein stability index (doa10∆) is 3.08 ± 0.27, the protein stability index (pdr5∆) is 2.58 ± 0.26 and the protein stability index (ubr1∆) was 1.72 ± 0.13.
Take YGEATSPFGAYGEAPTS [RPO21]: the protein stability index is 2.48 ± 0.065 (doa10∆), 2.58 ± 0.049 (pdr5∆), 2.9 ± 0.064 (san1∆) and 2.79 ± 0.054 (ubr1∆).
The matching figures for MPRLEEIDDFNDIDDLD [SEC65]: 2.71 ± 0.1, 3.09 ± 0.1, 2.9 ± 0.088 and 3.23 ± 0.12.
